Reference: US7625566

Columns and labels:
[1] = molecular target: human anti-HIV-1 (gp120 recognizing) antibody 2G12; experiment: cell-based or functional assay
[2] = molecular target: human monoclonal anti-HIV-1 antibody 2F5 (isotype not stated in the assay); experiment: cell-based or functional assay
[3] = molecular target: human monoclonal anti-HIV-1 antibody 2F5 (isotype not stated in the assay); experiment: competition ELISA: 500 ng/mL 3H6 preincubated with 31 ng/mL 2F5, then 2F5 binding to coated …
[4] = molecular target: human monoclonal anti-HIV-1 antibody 2F5 (isotype not stated in the assay); experiment: competition ELISA: 50 ng/mL 3H6 preincubated with 31 ng/mL 2F5, then 2F5 binding to coated …

B1: murine monoclonal anti-idiotypic antibody (Ab2) 3H6 (antibody, V domains shown)
VH: GVQLQQSGPELVKTGASVKISCKASGYSFTDYFMHWVKQSHGKSLDWIGYINCYTGATNYSQKFKGKATFTVDTSSNTAYMQFNSLTSEDSAVYYCARTSIGYGSSPPFPYWGQGTLVTVSA
VL: ETTVTQSPASLSMSIGEKVTIRCITSTDIDDDMNWYQQKPGEPPRLLISDGNTLRPGVPSRFSSSGYGTDFVFTIENMLSEDVADYYCLQSDNLPYTFGGGTNLEIK
reduction of 2G12 (10 µg/mL) neutralization of HIV-1 NL4-3 [1]: > 250 µg/mL
depletion of 2F5 (10 µg/mL) neutralization of HIV-1 NL4-3 on AA-2 cells, p24 ELISA [2]: 3.9 µg/mL
reduction of 2F5 (10 µg/mL) neutralization at 3.9 µg/mL 3H6 [2]: 95%
reduction of the neutralizing capacity of 2F5 (10 µg/mL) at 1.9 µg/mL 3H6 [2]: 5%
reduction of OD [3]: 83%
reduction of the OD [4]: 37%
